Assays:
Assay in all cases: ELISA
cdMMP-14 F198A = cdMMP-14 F198A (Homo sapiens, UniProt P50281, F198A)
[1] = molecular target: cdMMP-14 P259 alanine mutant (Homo sapiens, UniProt P50281, P259 to Ala)
cdMMP-14 N231A = cdMMP-14 N231A (Homo sapiens, UniProt P50281, N231A)
cdMMP-14 F260A = cdMMP-14 F260A (Homo sapiens, UniProt P50281, F260A)

B1: Fab 3E2 (Fab, V domains shown)
VH: EVQLVESGGGLVQPGGSLRLSCAASGFNIYYYSIHWVRQAPGKGLEWVASIYPYSSYTYYADSVKGRFTISADTSKNTAYLQMNSLRAEDTAVYYCARGIKGLVFTGSQMKMLRRGNYNWYVMDYWGQGTLVTVSS
VL: DIQMTQSPSSLSASVGDRVTITCRASQSVSSAVAWYQQKPGKAPKLLIYSASSLYSGVPSRFSGSRSGTDFTLTISSLQPEDFATYYCQQSSYSLITFGQGTKVEIK
- IC50 (cdMMP-14 F198A): > 900 nM
- IC50 [1]: > 900 nM

B2: Fab 2B5 (Fab, V domains shown)
VH: EVQLVESGGGLVQPGGSLRLSCAASGFNLSYSSMHWVRQAPGKGLEWVASIYPYSGYTYYADSVKGRFTISADTSKNTAYLQMNSLRAEDTAVYYCARIGVNAWAVKMSQRMLATRGSGWYVMDYWGQGTLVTVSS
VL: DIQMTQSPSSLSASVGDRVTITCRASQSVSSAVAWYQQKPGKAPKLLIYSASSLYSGVPSRFSGSRSGTDFTLTISSLQPEDFATYYCQQSSSYPYSPITFGQGTKVEIK
- fold weakening of IC50 against cdMMP-14 wt (cdMMP-14 N231A): 14 fold

B3: Fab 3E9 (Fab, V domains shown)
VH: EVQLVESGGGLVQPGGSLRLSCAASGFNLYYSSMHWVRQAPGKGLEWVASIYPSYGSTYYADSVKGRFTISADTSKNTAYLQMNSLRAEDTAVYYCARNGRYPGFLKRAHKRLLNFKAYVMDYWGQGTLVTVSS
VL: DIQMTQSPSSLSASVGDRVTITCRASQSVSSAVAWYQQKPGKAPKLLIYSASSLYSGVPSRFSGSRSGTDFTLTISSLQPEDFATYYCQQGSWYLITFGQGTKVEIK
- fold increase in IC50 against cdMMP-14 wt (cdMMP-14 F260A): 33 fold

— PMC7572768 (Biochemistry, 2020)
